Our source for the stoichiometry N values is publication PMC12624006.

The assay concerns the target Lhcp-2 polypeptide of the prasinophyte light-harvesting complex Lhcp (Ostreococcus tauri) (Ostreococcus tauri). The assay is described as follows: cryo-EM structure.

The substance “Lhcp-2 polypeptide of the prasinophyte light-harvesting complex Lhcp (Ostreococcus tauri) (natural protein)” gave a stoichiometry N of 3.

As usually defined, the stoichiometry N is the number of molecules, sites or subunits per partner or assembly.
